Experimental findings from paper PMC8050391, “Structure of 3-mercaptopropionic acid dioxygenase with a substrate analog reveals bidentate substrate binding at the iron center” (The Journal of Biological Chemistry, 2021) are described below.

As a reminder, the Ki is the dissociation constant of the complex between target and ligand, obtained from inhibition or displacement. Read a low Ki as a stronger hold on the target. Broadly, the stoichiometry N is the number of molecules, sites or subunits per partner or assembly.

Assay [1] addresses T1, 3-mercaptopropionic acid dioxygenase (Av3MDO) (Azotobacter vinelandii, UniProt C1DN94).
T1 construct: gene Avin_30970; His-tag removed by thrombin; N- and C-termini not modelled
Kind of assay: X-ray crystal structure ([…] Å); competitive inhibition by O2 electrode steady-state kinetics. In kind it is biochemical.

Assay [2] deals with Azotobacter vinelandii 3-mercaptopropionic acid dioxygenase (Azotobacter vinelandii). Kind of assay: crystal structure; crystal form B, space group P6(1)22, four monomers in the asymmetric unit; HEPES pH 7, pentaerythritol propoxylate, sodium thiocyanate, 22 °C; thiocyanate bound at the iron.
Assay [3] shares this target. Kind of assay: crystal structure; crystal form A, space group P3(1), 12 monomers in the asymmetric unit; 100 mM MES pH 6, 30% poly(acrylic acid sodium salt) 5100, 10% ethanol, 50 mM MgCl2, 22 °C; complex with 3HPA and chloride.

T1 sequence (C1DN94 entry or part of it): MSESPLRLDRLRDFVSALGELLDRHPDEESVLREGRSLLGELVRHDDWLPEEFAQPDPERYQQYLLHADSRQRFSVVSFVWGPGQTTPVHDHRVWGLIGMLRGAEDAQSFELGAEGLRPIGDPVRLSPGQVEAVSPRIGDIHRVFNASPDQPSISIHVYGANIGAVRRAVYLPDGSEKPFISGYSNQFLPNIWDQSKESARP

On to `O=C(O)CCO` [3HPA, 3-hydroxypropionic acid], for which the affinity in assay [1] corresponds to a Ki of 280 ± 26 µM. On to “Azotobacter vinelandii 3-mercaptopropionic acid dioxygenase (enzyme)”, for which the stoichiometry N in assay [2] and in assay [3] was 2 each time.
